Among the data in patent publication US20170002055A1, “Novel peptides and combination of peptides for use in immunotherapy against ovarian cancer and other cancers” (immatics biotechnologies GmbH, priority 2015, published 2017) are Peptide exchange values, retold here.

The target of this assay is HLA-A*02:01 (Homo sapiens, UniProt P04439, D140Y/D185E/D98H/E176V/E277Q/G131W/G231S/I119V/I121R/I166T/I218V/L300P/L318F/N151K/N90K/P208A/P217A/Q86G/Q94H/R138H/R169H/T345S). Description: MHC binding assay (UV-ligand exchange, β2m ELISA, peptide exchange yield). The conditions noted are these: MHC class I binding score; binding to HLA-A*02:01 ranged by peptide exchange yield (UV-ligand exchange, β2m ELISA). Summed up:
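Peptide–HLA-A*02:01 complexes were formed by UV-mediated exchange of a UV-cleavable ligand for the test peptide. Exchange yield was measured by capturing complexes on streptavidin, detecting with HRP anti-β2m antibody (1 h, 37°C) and reading TMB absorbance at 450 nm.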
In the case of “235 (YLNDLHEVLL; listed as Homo sapiens) [compound 235]”, the Peptide exchange entry is listed as ““++++” (≧75% = ++++)”. As for “236 (GLLEAKVSL; listed as Homo sapiens) [compound 236]”, the entry is ““+++” (≧50 = +++)”; as for “237 (ALLEASGTLLL; listed as Homo sapiens) [compound 237]”, ““++++” (≧75% = ++++)”. The entry for “238 (YLISFQTHI; listed as Homo sapiens) [compound 238]” is ““+++” (≧50 = +++)”. As for “239 (AAFAGKLLSV; listed as Homo sapiens) [compound 239]”, the entry is ““+++” (≧50 = +++)”; as for “240 (ILLEQAFYL; listed as Homo sapiens) [compound 240]”, ““+++” (≧50 = +++)”; as for “241 (SLVEVNPAYSV; listed as Homo sapiens) [compound 241]”, ““+++” (≧50 = +++)”. For the substance “243 (LLLNELPSV; listed as Homo sapiens) [compound 243]”, the Peptide exchange entry is ““+++” (≧50 = +++)”.

“244 (SLFGGTEITI; listed as Homo sapiens) [compound 244]”: the Peptide exchange result was ““+++” (≧50 = +++)”. Regarding “245 (SMIDDLLGV; listed as Homo sapiens) [compound 245]”, the Peptide exchange result is ““+++” (≧50 = +++)”.

As to “246 (LLWEVVSQL; listed as Homo sapiens) [compound 246]”, the Peptide exchange result was ““+++” (≧50 = +++)”. The entry for “248 (FLFPNQYVDV; listed as Homo sapiens) [compound 248]” is ““+++” (≧50 = +++)”; for “249 (LLDGFLVNV; listed as Homo sapiens) [compound 249]” it is ““+++” (≧50 = +++)”; for “250 (ALSEEGLLVYL; listed as Homo sapiens) [compound 250]” it is ““+++” (≧50 = +++)”. The entry for “251 (ALYTGFSILV; listed as Homo sapiens) [compound 251]” is ““++” (≧20% = ++)”; for “252 (LLIGTDVSL; listed as Homo sapiens) [compound 252]” it is ““+++” (≧50 = +++)”. As to “253 (GLDAATATV; listed as Homo sapiens) [compound 253]”, the Peptide exchange result is ““++” (≧20% = ++)”.

With “254 (TLLAFIMEL; listed as Homo sapiens) [compound 254]”, the Peptide exchange result was ““+++” (≧50 = +++)”.

On to “255 (VLASYNLTV; listed as Homo sapiens) [compound 255]”, for which the Peptide exchange result is ““+++” (≧50 = +++)”.

With “256 (FLPPEHTIVYI; listed as Homo sapiens) [compound 256]”, the Peptide exchange result was ““+++” (≧50 = +++)”.

With “257 (SIFSAFLSV; listed as Homo sapiens) [compound 257]”, the Peptide exchange entry was ““+++” (≧50 = +++)”.

For the substance “258 (ELAERVPAI; listed as Homo sapiens) [compound 258]”, the Peptide exchange entry was ““++” (≧20% = ++)”. Take “261 (YVLEFLEEI; listed as Homo sapiens) [compound 261]”: the Peptide exchange entry is listed as ““++” (≧20% = ++)”. Regarding “262 (LLWGDLIWL; listed as Homo sapiens) [compound 262]”, the Peptide exchange result is given as ““+++” (≧50 = +++)”. As for “263 (LLVSNLDFGV; listed as Homo sapiens) [compound 263]”, the Peptide exchange result is ““+++” (≧50 = +++)”. As for “264 (SLQEQLHSV; listed as Homo sapiens) [compound 264]”, the entry is ““+++” (≧50 = +++)”. The entry for “265 (LLFGGTKTV; listed as Homo sapiens) [compound 265]” is ““++” (≧20% = ++)”.

As for “266 (KITDTLIHL; listed as Homo sapiens) [compound 266]”, the Peptide exchange entry was ““+++” (≧50 = +++)”. The entry for “267 (ALQDFLLSV; listed as Homo sapiens) [compound 267]” is ““+++” (≧50 = +++)”.

Turning to “269 (RVLEVGALQAV; listed as Homo sapiens) [compound 269]”, the Peptide exchange entry is on record as ““++” (≧20% = ++)”. The entry for “270 (LLLDEEGTFSL; listed as Homo sapiens) [compound 270]” is ““++” (≧20% = ++)”; for “271 (LVYPLELYPA; listed as Homo sapiens) [compound 271]” it is ““+++” (≧50 = +++)”. The entry for “272 (ALGNTVPAV; listed as Homo sapiens) [compound 272]” is ““+++” (≧50 = +++)”. “273 (NLFQSVREV; listed as Homo sapiens) [compound 273]”: the Peptide exchange entry is recorded as ““++” (≧20% = ++)”. The entry for “274 (SLLFSLFEA; listed as Homo sapiens) [compound 274]” is ““++” (≧20% = ++)”; for “275 (YLVYILNEL; listed as Homo sapiens) [compound 275]” it is ““++” (≧20% = ++)”; for “276 (ALFTFSPLTV; listed as Homo sapiens) [compound 276]” it is ““+++” (≧50 = +++)”. As to “277 (LLPPLESLATV; listed as Homo sapiens) [compound 277]”, the Peptide exchange entry was ““++” (≧20% = ++)”. As for “278 (QLLDVVLTI; listed as Homo sapiens) [compound 278]”, the entry is ““++” (≧20% = ++)”. As to “279 (ALWGGTQPLL; listed as Homo sapiens) [compound 279]”, the Peptide exchange entry is listed as ““++” (≧20% = ++)”.

Consider “280 (VLPDPEVLEAV; listed as Homo sapiens) [compound 280]”, for which the Peptide exchange result is recorded as ““+++” (≧50 = +++)”. The entry for “281 (ILRESTEEL; listed as Homo sapiens) [compound 281]” is ““+++” (≧50 = +++)”; for “282 (LLADVVPTT; listed as Homo sapiens) [compound 282]” it is ““+++” (≧50 = +++)”; for “284 (ILLSQTTGV; listed as Homo sapiens) [compound 284]” it is ““+++” (≧50 = +++)”. As for “285 (QLLHVGVTV; listed as Homo sapiens) [compound 285]”, the entry is ““+++” (≧50 = +++)”; as for “286 (YLFPGIPEL; listed as Homo sapiens) [compound 286]”, ““+++” (≧50 = +++)”. The entry for “287 (FLNEFFLNV; listed as Homo sapiens) [compound 287]” is ““+++” (≧50 = +++)”; for “288 (NLINEINGV; listed as Homo sapiens) [compound 288]” it is ““+++” (≧50 = +++)”. Consider “289 (VLLEIEDLQV; listed as Homo sapiens) [compound 289]”, for which the Peptide exchange entry is given as ““++++” (≧75% = ++++)”.

Regarding “295 (VLDRESPNV; listed as Homo sapiens) [compound 295]”, the Peptide exchange entry is on record as ““+++” (≧50 = +++)”. As for “296 (FMEGAIIYV; listed as Homo sapiens) [compound 296]”, the entry is ““+++” (≧50 = +++)”. For the substance “297 (VLADIELAQA; listed as Homo sapiens) [compound 297]”, the Peptide exchange result is listed as ““+++” (≧50 = +++)”. As for “298 (VMITKLVEV; listed as Homo sapiens) [compound 298]”, the entry is ““+++” (≧50 = +++)”. For the substance “299 (YLLETSGNL; listed as Homo sapiens) [compound 299]”, the Peptide exchange entry is ““+++” (≧50 = +++)”. On to “300 (ALLGQTFSL; listed as Homo sapiens) [compound 300]”, for which the Peptide exchange entry was ““+++” (≧50 = +++)”. As for “301 (FLVEDLVDSL; listed as Homo sapiens) [compound 301]”, the entry is ““+++” (≧50 = +++)”; as for “302 (ALLQEGEVYSA; listed as Homo sapiens) [compound 302]”, ““+++” (≧50 = +++)”; as for “303 (AILPQLFMV; listed as Homo sapiens) [compound 303]”, ““++++” (≧75% = ++++)”.

Consider “304 (MTLGQIYYL; listed as Homo sapiens) [compound 304]”, for which the Peptide exchange result is ““+++” (≧50 = +++)”. As for “305 (SIANFSEFYV; listed as Homo sapiens) [compound 305]”, the Peptide exchange result is recorded as ““++++” (≧75% = ++++)”.

Regarding “306 (ALVNVQIPL; listed as Homo sapiens) [compound 306]”, the Peptide exchange entry was ““+++” (≧50 = +++)”. For the substance “307 (ALPVSLPQI; listed as Homo sapiens) [compound 307]”, the Peptide exchange result is given as ““+++” (≧50 = +++)”. As for “308 (SQYSGQLHEV; listed as Homo sapiens) [compound 308]”, the entry is ““+++” (≧50 = +++)”; as for “309 (GLFDGVPTTA; listed as Homo sapiens) [compound 309]”, ““+++” (≧50 = +++)”; as for “310 (FLVDTPLARA; listed as Homo sapiens) [compound 310]”, ““++++” (≧75% = ++++)”.

As to “311 (RLYTGMHTV; listed as Homo sapiens) [compound 311]”, the Peptide exchange result was ““+++” (≧50 = +++)”. “312 (IISDLTIAL; listed as Homo sapiens) [compound 312]”: the Peptide exchange result is ““+++” (≧50 = +++)”. The entry for “313 (VLFDDELLMV; listed as Homo sapiens) [compound 313]” is ““+++” (≧50 = +++)”. The entry for “314 (ALIAEGIALV; listed as Homo sapiens) [compound 314]” is ““+++” (≧50 = +++)”; for “315 (YLQDVVEQA; listed as Homo sapiens) [compound 315]” it is ““+++” (≧50 = +++)”.
